Publication PMC6702328 (2019)

Key:
Test in all cases: MST
human mutant SOD1^G85R = human mutant SOD1^G85R (human, fluorescently labeled (NanoTemper BLUE protein-labeling kit) where it was the labelled partner in MST)
Target sequence (chain, as listed by the source G85R): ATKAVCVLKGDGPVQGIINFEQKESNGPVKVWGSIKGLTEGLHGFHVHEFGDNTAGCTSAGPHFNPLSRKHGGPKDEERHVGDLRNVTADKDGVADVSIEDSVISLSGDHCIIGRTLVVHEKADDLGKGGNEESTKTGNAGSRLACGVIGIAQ

[1] = molecular target: wild type human SOD1 (Cu/Zn superoxide dismutase) (human, UniProt P00441 1-154, fluorescently labeled (NanoTemper BLUE protein-labeling kit) where it was the labelled partner in MST)
human mutant SOD1^G93A = human mutant SOD1^G93A (human, fluorescently labeled (NanoTemper BLUE protein-labeling kit) where it was the labelled partner in MST)
Target sequence (chain, as listed by the source G93A): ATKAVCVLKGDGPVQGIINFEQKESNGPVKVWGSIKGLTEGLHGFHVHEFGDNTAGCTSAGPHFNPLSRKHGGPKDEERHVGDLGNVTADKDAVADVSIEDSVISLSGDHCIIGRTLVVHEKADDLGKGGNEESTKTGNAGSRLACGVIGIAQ

Chain of wild type human SOD1 (Cu/Zn superoxide dismutase) (P00441 whole entry): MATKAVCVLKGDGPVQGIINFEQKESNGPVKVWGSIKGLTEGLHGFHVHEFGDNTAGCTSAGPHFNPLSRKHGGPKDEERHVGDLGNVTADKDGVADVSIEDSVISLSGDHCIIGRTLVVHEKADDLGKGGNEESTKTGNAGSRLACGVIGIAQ

MAVPPTYADLGKSARDVFTKGYGFGL [1-26 N-Terminal peptide of VDAC1]
EC50 (human mutant SOD1^G85R): 3.75 µM
EC50 [1]: > 200 µM
EC50 (human mutant SOD1^G93A): 3.75 µM
